Experimental findings from the nanobody polyreactivity screen of Harvey et al. (2022) are described below.

The data set is described as follows: yeast display, Sf9 membrane polyspecificity reagent, FACS + sequencing; frameworks hold sequencing errors. Summed up: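 Nanobodies came from a synthetic yeast display library in Saccharomyces cerevisiae BJ5465, induced with galactose for 36–48 hours and stained for 1 hour at 4 °C with 10% biotinylated, detergent-solubilized Sf9 membrane reagent. Cells were enriched on streptavidin microbeads and then FACS-sorted, with low and high (top ~1%) gates set on anti-HA fluorescence for expression and streptavidin fluorescence for reagent binding. Each polyreactivity label reflects the gate a clone came from. Genes were amplified by colony PCR, sequenced by MiSeq 2 × 250 and filtered by CDR length.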
For “QVQLVESGGGLVQAGGSLRLSCAASGFTFERNTMGWYRQAPGKERELVSTITRRGTSTYYADSVKGRFTISRDNAKNTVYLQMNSLKPEDTAVYYCAVYGYRTKYGYWGQGTQVTVSS”, the “polyreactivity (PSR sort gate)” value is on record as “high polyreactivity”. Consider “QVQLVESGGGLVQAGGSLRLSCAASGFTFERYAMGWYRPAPGKDRELVAAITGSGGSTYYADSVKGRFTIARDNATNTVYLQMNSLKPEDTAFYYCARDSSLFRLRDYWGQGTQVTVSS”, for which the “polyreactivity (PSR sort gate)” value was “low polyreactivity”. With “QVQLVESGGGLVQAGGSLRLSCAASGFTFERYTMGWYRQAPGKEREMVATISRRSGRTSYADSVKGRFTISRDYAKNTVYLQMNRLQPEDTAVYYCAVDDAYPDRYDYWGQGTQVTVSS”, the “polyreactivity (PSR sort gate)” value was “high polyreactivity”.

Regarding “QVQLVESGGGLVQAGGSLRLSCAASGFTFETYVMGWYRQAPGKERELVAAISRRGGSTYYADSVKGRFTISRDNAKNTVYLQMNSLKPEDTAVYYCGKDGGWSRLHYNYWGQGTQVTVSS”, the “polyreactivity (PSR sort gate)” value is “high polyreactivity”. As for “QVQLVESGGGLVQAGGSLRLSCAASGFTFEWNTMGWYRPAPGKERELVARINWSSGRTYYADSVKGRFTISRDNAKNTVYLQMNSLKPEDTAVYYCAADTYDWRTGYKDDYWGQGTQVTVSS”, the entry is “high polyreactivity”; as for “QVQLVESGGGLVQAGGSLRLSCAASGFTFEYNDMGWYRQAPGIERELVDSISYDSDSTYYADSVKGRFTISRDNAKNTVYLQMNRLKPEDTAVYYCNAGSSYHEYGYWGQGTQVTVSS”, “high polyreactivity”. Regarding “QVQLVESGGGLVQAGGSLRLSCAASGFTFEYNDMGWYRQAPGKERELVASISYDSDSTYYAVSVKGRFTISRDNAKNTVYLQMNSLKPEDTAVYYCNAGSSYHEYGYWGQGTQVTVSS”, the “polyreactivity (PSR sort gate)” value is reported as “high polyreactivity”. As for “QVQLVESGGGLVQAGGSLRLSCAASGFTFEYYAMGWYRQAPGKERELVAVITWNGGSTYYADSVKGRFTISRDNAKNTVYLQMNSLKPEDTAVYYCNVVPYLYNGGSHRYNYWGQGTQVTVSS”, the entry is “high polyreactivity”; as for “QVQLVESGGGLVQAGGSLRLSCAASGFTFFDNAMGWYRQAPGKERELVAAITWSDGSTYYADSVKGRFTISRDNAKNTVYLQMNSLKAEDTAVYYCAVGFISYSYSNYYDVWYEYYYWGQGTQVTVSS”, “low polyreactivity”; as for “QVQLVESGGGLVQAGGSLRLSCAASGFTFFDYVMGWYRQAPGKERELVAAISSGGSTYYADSVKGRFTISRDNAKNTVYLQMNSLKPEDTAVYYCATDNGYPDDATDGYYSLYDYWGQGTQVTVSS”, “low polyreactivity”. Consider “QVQLVESGGGLVQAGGSLRLSCAASGFTFFEDNAMGWYRQAPGKERELVAAITSGGSTNYADSVKGRFTISRDNAKNTVYLQMISLKPEDTAVYYCAKDRVPLKTRFYYFPWGYDYWGQGTQVTVSS”, for which the “polyreactivity (PSR sort gate)” value was “low polyreactivity”.

Regarding “QVQLVESGGGLVQAGGSLRLSCAASGFTFFGDYAMGWYRQAPGKERELVAAIDWSGGTTYYADSVKGRFTISRDNAKNTVYLQMNSLKPEDTAVYYCAKDYYSDGIYYEYWGQGTQVTVSS”, the “polyreactivity (PSR sort gate)” value is recorded as “high polyreactivity”.

Regarding “QVQLVESGGGLVQAGGSLRLSCAASGFTFFHYAMGWYRQAPGKERELVAAINTRGSRTYYADSVKGRFTISRDNAKNTVYLQMNSLKPEDTAVYYCAADSVQVYAWQYYYWGQGTQVTVSS”, the “polyreactivity (PSR sort gate)” value is reported as “high polyreactivity”. The entry for “QVQLVESGGGLVQAGGSLRLSCAASGFTFFHYDMGWYRQAPGKERELVAAINTRGSRTYYADSVKGRFTISRDNAKNTVYLQMNSLKPEDTAGYYSAADSVQVYAGQYYYWGQGTQVTVSS” is “high polyreactivity”; for “QVQLVESGGGLVQAGGSLRLSCAASGFTFFSNAMGWYRQAPGKERELVAAITSSGGSTYADSVKGRFTISRDNAKNTVYLQMNSLKPEDTAVYYCAADALAPPGGFKEYDYWGQGTQVTVSS” it is “low polyreactivity”. As for “QVQLVESGGGLVQAGGSLRLSCAASGFTFFTYTMGWYRQAPGKERELVAAISRDGARTNYADSVKGRFTISRDNAKNTVYLQMNSLKPEDTAVYYCAAPTSHLYTEKYDYWGQGTQVTVSS”, the entry is “high polyreactivity”; as for “QVQLVESGGGLVQAGGSLRLSCAASGFTFFVYAMGWYRQAPGKERELVATINWSGASTYYADSVKGRFTISRDNAKNTVYLQMKSLKPEDTAVYYCAKDGHYPLVYLAFDYWGQGTQVTVSS”, “low polyreactivity”; as for “QVQLVESGGGLVQAGGSLRLSCAASGFTFFVYAMGWYRQAPGKERELVAVITSGGTTNYADSVKGRFTISRDNAKNTVYLQMNSLKPEDTAVYYCNARGEKRGYYYWGQGTQVTVSS”, “high polyreactivity”. The entry for “QVQLVESGGGLVQAGGSLRLSCAASGFTFGAYAKGWSRQAPGKEWELVASISWSGTSTYYADSVKGRFTISRDNAKNTVYLQMNSLKPEDTAVYYCAAGYRSTRYDYWGQGTQVTVSS” is “high polyreactivity”; for “QVQLVESGGGLVQAGGSLRLSCAASGFTFGDNAMGWYRQAPWKERELVADIDSDGSTYYADSVKGRFTISRDNAKNTFYLEMNSLKPEDNAVYYCAKDQYYSLGPYSFGFDYWGQGTQVNVSS” it is “low polyreactivity”; for “QVQLVESGGGLVQAGGSLRLSCAASGFTFGDYAMGWYRQAPGKERELVAAISRSGSNTYYADSVKGRFTISRDNAKNTVYLQMNSQKPEDTAVYYCNADYDPEDMDYWGQGTQVTVSS” it is “low polyreactivity”. Consider “QVQLVESGGGLVQAGGSLRLSCAASGFTFGDYAMGWYRQAPRKERELVAAISKRGGRTFYADSVKGRFTISRDNAKNTVYLQMNSLKPEDTAVYYCAKAGSFDYDYWGQGTQVTVSS”, for which the “polyreactivity (PSR sort gate)” value is “high polyreactivity”.

“QVQLVESGGGLVQAGGSLRLSCAASGFTFGEYAMGWYRQAPGKEREFVAAISATGGSTYYADSVKGRFTISRDNAKNTVYLQMNSLKPEDTAVYYCAARDAYYDGYDYWGQGTQVTVSS”: the “polyreactivity (PSR sort gate)” value is on record as “low polyreactivity”. As for “QVQLVESGGGLVQAGGSLRLSCAASGFTFGFNAMGWYRQAPGKEREFVASITYRGGSTYYADSVKGRFTISRDNAKNTVYLQMNSLKPEDTAVYYCAAASPWRRYISDYWGQGTQVTVSS”, the entry is “high polyreactivity”. As for “QVQLVESGGGLVQAGGSLRLSCAASGFTFGFYAMGWYIQAPGNERELVASITTRGGSTRYADSVKGRFTISRDNAKNTVYLQMNSLKPEDTAVYYCAAQYSYVRYLKRGYGYWGQGTQVTVSS”, the entry is “high polyreactivity”. The entry for “QVQLVESGGGLVQAGGSLRLSCAASGFTFGGYAMGWYRQAPGKERELVAAISGRGGRTYYADSVKGRFTISRDNAKNTVYLQMNSLKPEDTAVYYCAAPTNHWTLLSGDYWGQGTQVTVSS” is “high polyreactivity”.

Turning to “QVQLVESGGGLVQAGGSLRLSCAASGFTFGGYAMGWYRQAPGKERELVAAISRSGGSTYYADSVKGRFIISRDNAKNTVYLQMNSLKPEDTAVYYCAAKTVSRARLYDYWGQGTQVTVSS”, the “polyreactivity (PSR sort gate)” value is “high polyreactivity”.

“QVQLVESGGGLVQAGGSLRLSCAASGFTFGINAMGWYRQAPGKERELVAAINQSGDRTYYADSVKGRFTISRDNAKNTVYLQMNSLKPEDTAVYYCAGPSYWGGGRYRYGYWGQGTQVTVSS”: the “polyreactivity (PSR sort gate)” value was “high polyreactivity”.

Take “QVQLVESGGGLVQAGGSLRLSCAASGFTFGNNGMGWYRQAPGKERELVATISWSGGSTYADSVKGRFTISRDNAKNTVYLQMNSLKPEDTAVYYCAAPYLSLYWYDYWGQGTQVTVSS”: the “polyreactivity (PSR sort gate)” value was “low polyreactivity”. As for “QVQLVESGGGLVQAGGSLRLSCAASGFTFGPYAMGWYRQAPGKERELVAAIRSGGSTNYADSVKGRFTISRDNAKNTVYLQMNSLKPEDTAVYYCAAGYRRGWVTMGYWGQGTQVTVSS”, the entry is “high polyreactivity”; as for “QVQLVESGGGLVQAGGSLRLSCAASGFTFGRYAMGWYRQAPGKERELVAAISSSGSSTYYADSVKGRFTLSRDNAKNTVYLQMNSLKPEDTAVYYCNTRCRKHPSSYPYDYWGQGTQVTVSS”, “high polyreactivity”; as for “QVQLVESGGGLVQAGGSLRLSCAASGFTFGRYAMGWYRQAPGKERELVATITRSGVNTYYADSVKGRFTISRDNAKNTVYLQMNSLKPEDTAVYYCAAVEIWYWGFTQYEYWGQGTQVTVSS”, “high polyreactivity”.

Take “QVQLVESGGGLVQAGGSLRLSCAASGFTFGSNDMGWYRQAPVKERELVAAIDGSGDTYYADSVKGRFTISRDNAKNTVYLQMNSLKPEDTAVYYCAAGYTYYSLYGYWGQGTQVTVSS”: the “polyreactivity (PSR sort gate)” value was “low polyreactivity”. The entry for “QVQLVESGGGLVQAGGSLRLSCAASGFTFGSYAMGWYIQAPGKERELVARISSDGSTNYADSVKGRFTISRDNAKNTVYLQMNSLKPEDTAVYYSARDRKRQADDIGEFDYWGQGTQVTVSS” is “low polyreactivity”; for “QVQLVESGGGLVQAGGSLRLSCAASGFTFGSYAMGWYRQAPGKERELVAAISWGGGSTYYADSVKGRFTISRDNAKNTVYLQMNSLKPEDTAVYYCNADAISSFGYWGQGTQVTVSS” it is “high polyreactivity”; for “QVQLVESGGGLVQAGGSLRLSCAASGFTFGVYAMGWYRPAPGKERELVAAITSGGGRTYADSVKGRFTISRDNAKNTVYLQMNSLKTEDTADYYCAAEGVPLRVVLDYSYWDYDYDYWGQGTQVTVSS” it is “low polyreactivity”.

With “QVQLVESGGGLVQAGGSLRLSCAASGFTFGWYAMGWDIQAPGKERELLATISWSGSSTYYADSVKGLFTISRDNAKNTVYLQMNSLKPEDTAVYYCNAVYGGFVVLRYDYWGQGTQVTVSS”, the “polyreactivity (PSR sort gate)” value is listed as “high polyreactivity”. As for “QVQLVESGGGLVQAGGSLRLSCAASGFTFGWYAMGWYRQAPGKEREFVAAISRSGGSTYYADSVKGRFTISRDNAKNTVYLQMNSLKPEDTAVYYCAAYIIGDTHAEYDYWGQGTQVTVSS”, the entry is “high polyreactivity”; as for “QVQLVESGGGLVQAGGSLRLSCAASGFTFGWYTMGWYRQAPGKERELDAAISLNGGSTYYADSVKGRFTISRDNAKNTVYLQMTSLKPEDTAVYYCAIRYRWPYYPYVYWGQGTQVTVSS”, “low polyreactivity”. The entry for “QVQLVESGGGLVQAGGSLRLSCAASGFTFGYNAMGWYRQAPGKERELVAAISSSGGSTYYADSVKGRFTISRDNAKNTVYLQMNSLKPEDTAVYYCAKRTPRKWGQGTQVTVSS” is “high polyreactivity”. Regarding “QVQLVESGGGLVQAGGSLRLSCAASGFTFGYNAMGWYRQAPGKERELVAAITSGGSTNYADSVKGRFTISRDNAKNTVYLQMNSLKPEDTAVYYCAVDPVRGRDYSWMDYWGQGTQVTVSS”, the “polyreactivity (PSR sort gate)” value was “low polyreactivity”.
